B1: THAP1; numbered along this chain (parent)
chain: MVQSCSAYGCKNRYDKDKPVSFHKFPLTRPSLCKEWEAAVRRKNFKPTKYSSICSEHFTPDCFKRECNNKLLKENAVPTIFLCTEPHDKKEDLLEPQEQLPPPPLPPPVSQVDAAIGLLMPPLQTPVNLSVFCDHNYTVEDTMHQRKRIHQLEQQVEKLRKKLKTAQQRCRRQERQLEKLKEVVHFQKEKDDVSERGYVILPNDYFEIVEVPA

Variants of: B1
Experiment: THAP1 transcriptional activity (GFP+/GFP- enrichment relative to wild-type constructs) (ratio to WT); higher = more THAP1 activity (PSMB5 reporter activation)
Conditions: with PSMB5 promoter-GFP reporter
Experimental: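 Deep mutational scan of human THAP1. Site-saturation single amino acid variant library (residues 2-213) was expressed by lentivirus at MOI ~0.3 in THAP1-knockout HEK-293T cells carrying an endogenous PSMB5 promoter-GFP knock-in reporter. Five days post-transduction, BFP+ cells were FACS-sorted into GFP dim and GFP bright populations and variants were counted by Illumina sequencing. Activity is the GFP-bright/GFP-dim read fold change, mean of 2 replicates, divided by the mean fold change of wild-type (synonymous) constructs in the same screen pool; WT = 1.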
For S52H, the THAP1 transcriptional activity was 0.251.
For S52E, the THAP1 transcriptional activity was 0.0459.
E189F was tested, and the THAP1 transcriptional activity was 0.853.
E189H showed a THAP1 transcriptional activity of 0.949.
With K158P the THAP1 transcriptional activity was 0.175.
In the case of K164M, the THAP1 transcriptional activity is reported as 0.258.
Variant L72P has a THAP1 transcriptional activity of 0.221.
P202T was tested, and the THAP1 transcriptional activity was 0.839.
For T165S, the THAP1 transcriptional activity was 1.6.
For T165C, the THAP1 transcriptional activity was 1.22.
Work on V127N yielded a THAP1 transcriptional activity of 0.997.
P78V was tested, and the THAP1 transcriptional activity was 0.191.
L94W was tested, and the THAP1 transcriptional activity was 0.914.
With L94C the THAP1 transcriptional activity was 0.962.
With A114S the THAP1 transcriptional activity was 0.612.
Work on I116N yielded a THAP1 transcriptional activity of 0.988.
F45L showed a THAP1 transcriptional activity of 0.142.
Variant F45C has a THAP1 transcriptional activity of 0.027.
Variant F45T has a THAP1 transcriptional activity of 0.0941.
For F206E, the THAP1 transcriptional activity was 1.11.
In the case of L82V, the THAP1 transcriptional activity is reported as 1.71.
With E153K the THAP1 transcriptional activity was 0.513.
In the case of S194M, the THAP1 transcriptional activity is reported as 0.847.
L201D showed a THAP1 transcriptional activity of 0.836.
Variant K16E has a THAP1 transcriptional activity of 0.125.
With K16C the THAP1 transcriptional activity was 0.121.
P96I gave a THAP1 transcriptional activity of 0.683.
F63H was tested, and the THAP1 transcriptional activity was 0.0911.
F63V gave a THAP1 transcriptional activity of 0.082.
Work on M143N yielded a THAP1 transcriptional activity of 0.961.
For M143K, the THAP1 transcriptional activity was 0.848.
Work on L32Y yielded a THAP1 transcriptional activity of 0.135.
Variant E207L has a THAP1 transcriptional activity of 1.2.
For T138F, the THAP1 transcriptional activity was 0.626.
For T138A, the THAP1 transcriptional activity was 2.41.
Work on K24D yielded a THAP1 transcriptional activity of 0.116.
In the case of K24W, the THAP1 transcriptional activity is reported as 0.156.
For V20N, the THAP1 transcriptional activity was 0.161.
In the case of V20H, the THAP1 transcriptional activity is reported as 0.115.
Work on P126I yielded a THAP1 transcriptional activity of 0.18.
In the case of R41A, the THAP1 transcriptional activity is reported as 1.37.
In the case of V211G, the THAP1 transcriptional activity is reported as 0.936.
V211L gave a THAP1 transcriptional activity of 1.38.
C62Y gave a THAP1 transcriptional activity of 0.141.
With C62D the THAP1 transcriptional activity was 1.01.
For R172S, the THAP1 transcriptional activity was 0.428.
R172Q was tested, and the THAP1 transcriptional activity was 0.364.
Work on L163G yielded a THAP1 transcriptional activity of 0.179.
Work on E98G yielded a THAP1 transcriptional activity of 1.03.
Work on E98D yielded a THAP1 transcriptional activity of 1.77.
E98I showed a THAP1 transcriptional activity of 1.74.
P107H gave a THAP1 transcriptional activity of 0.688.
L27T gave a THAP1 transcriptional activity of 0.31.
For S55W, the THAP1 transcriptional activity was 0.0398.
For S55D, the THAP1 transcriptional activity was 0.077.
D204A gave a THAP1 transcriptional activity of 1.26.
Variant Y8H has a THAP1 transcriptional activity of 0.464.
For Y8L, the THAP1 transcriptional activity was 0.795.
With S31I the THAP1 transcriptional activity was 0.728.
In the case of S31A, the THAP1 transcriptional activity is reported as 1.03.
Work on V112N yielded a THAP1 transcriptional activity of 1.3.
P60Q showed a THAP1 transcriptional activity of 1.17.
In the case of E95R, the THAP1 transcriptional activity is reported as 1.65.
E95D showed a THAP1 transcriptional activity of 1.16.
Work on K73D yielded a THAP1 transcriptional activity of 0.191.
M120R gave a THAP1 transcriptional activity of 0.835.
H150E gave a THAP1 transcriptional activity of 0.884.
With S4Q the THAP1 transcriptional activity was 0.114.
With Q124C the THAP1 transcriptional activity was 0.587.
Work on Q124M yielded a THAP1 transcriptional activity of 0.487.
For Q124K, the THAP1 transcriptional activity was 0.879.
L119R gave a THAP1 transcriptional activity of 0.731.
Variant S6A has a THAP1 transcriptional activity of 0.787.
Variant T125E has a THAP1 transcriptional activity of 1.1.
Variant Q97I has a THAP1 transcriptional activity of 2.53.
Variant P19C has a THAP1 transcriptional activity of 0.529.
In the case of E195P, the THAP1 transcriptional activity is reported as 0.704.
With E195N the THAP1 transcriptional activity was 0.808.
Variant T142D has a THAP1 transcriptional activity of 0.738.
C133P gave a THAP1 transcriptional activity of 0.267.
C33E was tested, and the THAP1 transcriptional activity was 0.0749.
In the case of V139W, the THAP1 transcriptional activity is reported as 0.454.
With I149F the THAP1 transcriptional activity was 0.539.
Variant W36P has a THAP1 transcriptional activity of 0.167.
Variant L123G has a THAP1 transcriptional activity of 0.957.
In the case of P102I, the THAP1 transcriptional activity is reported as 1.31.
P102Q showed a THAP1 transcriptional activity of 3.01.
For A7M, the THAP1 transcriptional activity was 0.279.
P108F was tested, and the THAP1 transcriptional activity was 0.519.
Variant P108E has a THAP1 transcriptional activity of 1.26.
For Y198M, the THAP1 transcriptional activity was 1.02.
Variant Y198I has a THAP1 transcriptional activity of 1.25.
In the case of F132V, the THAP1 transcriptional activity is reported as 0.402.
For F132I, the THAP1 transcriptional activity was 0.806.
F132T gave a THAP1 transcriptional activity of 0.436.
Variant A166L has a THAP1 transcriptional activity of 0.89.
Work on A166E yielded a THAP1 transcriptional activity of 0.448.
For T84F, the THAP1 transcriptional activity was 1.21.
Work on T84H yielded a THAP1 transcriptional activity of 0.92.
E35L was tested, and the THAP1 transcriptional activity was 1.18.
For E35I, the THAP1 transcriptional activity was 0.451.
D61H gave a THAP1 transcriptional activity of 0.228.
V109L gave a THAP1 transcriptional activity of 2.8.
V109G showed a THAP1 transcriptional activity of 1.96.
For V109R, the THAP1 transcriptional activity was 0.788.
Work on V109N yielded a THAP1 transcriptional activity of 2.02.
Q173F showed a THAP1 transcriptional activity of 0.425.
With R196K the THAP1 transcriptional activity was 0.966.
In the case of R160Q, the THAP1 transcriptional activity is reported as 0.492.
Q145N showed a THAP1 transcriptional activity of 0.719.
T28K was tested, and the THAP1 transcriptional activity was 1.42.
Work on T79W yielded a THAP1 transcriptional activity of 0.281.
Work on I208R yielded a THAP1 transcriptional activity of 0.751.
L93E gave a THAP1 transcriptional activity of 1.43.
For G9R, the THAP1 transcriptional activity was 0.256.
Work on D134R yielded a THAP1 transcriptional activity of 0.265.
For L159P, the THAP1 transcriptional activity was 0.158.
Work on E74D yielded a THAP1 transcriptional activity of 0.59.
Work on E74T yielded a THAP1 transcriptional activity of 0.334.
With V209S the THAP1 transcriptional activity was 0.634.
With Q176H the THAP1 transcriptional activity was 0.546.
Variant K190P has a THAP1 transcriptional activity of 0.901.
In the case of K190M, the THAP1 transcriptional activity is reported as 0.557.
F186M was tested, and the THAP1 transcriptional activity was 1.32.
T48A was tested, and the THAP1 transcriptional activity was 0.107.
Variant R169C has a THAP1 transcriptional activity of 0.292.
V156P showed a THAP1 transcriptional activity of 0.0732.
With A213Q the THAP1 transcriptional activity was 1.25.
Variant A213L has a THAP1 transcriptional activity of 0.907.
V2H gave a THAP1 transcriptional activity of 0.247.
C67F gave a THAP1 transcriptional activity of 0.147.
For C83D, the THAP1 transcriptional activity was 2.06.
For N12M, the THAP1 transcriptional activity was 0.199.
Work on L118D yielded a THAP1 transcriptional activity of 0.991.
In the case of V193T, the THAP1 transcriptional activity is reported as 1.25.
Work on D88L yielded a THAP1 transcriptional activity of 1.3.
Variant L71N has a THAP1 transcriptional activity of 0.266.
With L71W the THAP1 transcriptional activity was 0.259.
L71A was tested, and the THAP1 transcriptional activity was 0.407.
With A115K the THAP1 transcriptional activity was 0.658.
Q187V was tested, and the THAP1 transcriptional activity was 0.652.
For P212N, the THAP1 transcriptional activity was 1.15.
In the case of P101Q, the THAP1 transcriptional activity is reported as 1.61.
Variant E56I has a THAP1 transcriptional activity of 0.6.
Work on C5D yielded a THAP1 transcriptional activity of 0.262.
Work on H135N yielded a THAP1 transcriptional activity of 0.183.
With V199K the THAP1 transcriptional activity was 0.555.
Variant Y205V has a THAP1 transcriptional activity of 0.976.
For I53E, the THAP1 transcriptional activity was 0.101.
For I53M, the THAP1 transcriptional activity was 0.194.
R65M showed a THAP1 transcriptional activity of 0.623.
In the case of R65N, the THAP1 transcriptional activity is reported as 0.596.
K188S gave a THAP1 transcriptional activity of 0.937.
For K188L, the THAP1 transcriptional activity was 0.724.
In the case of S21F, the THAP1 transcriptional activity is reported as 0.11.
S51F gave a THAP1 transcriptional activity of 0.102.
A38G showed a THAP1 transcriptional activity of 0.417.
With A38W the THAP1 transcriptional activity was 0.234.
A38E showed a THAP1 transcriptional activity of 0.41.
P47I was tested, and the THAP1 transcriptional activity was 0.36.
Work on K179M yielded a THAP1 transcriptional activity of 0.465.
With L100C the THAP1 transcriptional activity was 0.796.
In the case of K49W, the THAP1 transcriptional activity is reported as 0.1.
With K49A the THAP1 transcriptional activity was 0.22.
E182V showed a THAP1 transcriptional activity of 0.698.
C170R was tested, and the THAP1 transcriptional activity was 0.609.
For A76P, the THAP1 transcriptional activity was 0.384.
